Laboratory results published in patent publication US20230052142A1 (NORDIC BIOSCIENCE A S, published 2023).

Target: T1, monoclonal antibody clone NBH134 #102-3GF
T1 construct: also called TUM antibody; HRP labeled monoclonal antibody
Assay: TUM competitive ELISA: the standard peptide in solution competes with plate-bound …-K-Biotin for the HRP-labelled antibody
Protocol: Plates were washed five times in washing buffer (20 mM TRIS, 50 mM NaCl, pH 7.2). Subsequently, 20 μL of standard peptide or sample were added to appropriate wells, followed by 100 μL of 7 ng/mL horseradish peroxidase (HRP) labeled monoclonal antibody solution. The plates were incubated for 1 hour at 20° C. with shaking, and subsequently washed in washing buffer. Finally, 100 μL 3,3′,5,5-tetramethylbenzinidine (TMB) (Kem-En-Tec cat. 4380H) was added, and incubated for 15 min at 20° C. To stop the enzyme reaction of TMB, 100 μL of stopping solution (1% H₂SO₄) was added. The plate was analyzed by an ELISA reader at 450 nm with 650 nm as reference (Molecular Devices, VersaMax, CA, USA). A standard curve was performed by serial dilution of the standard peptide and plotted using a 4-parametric mathematical fit model. Standard concentrations were 0, 0.3125, 0.625, 1.25, 2.5, 5, 10, and 20 ng/mL. Each plate included five kit controls to monitor inter-assay variation. All samples were measured within the range of the assay, and all samples below lower limit of measurement range (LLMR) were reported as the value of LLMR.

IC50: 1.6 ng/mL
B1: standard peptide PGLKGKRGDS (peptide)
peptide: PGLKGKRGDS
notes: Synthetic peptide bought from Genscript; also called calibrator peptide; calibration peptide
